Data from patent US20150218244A1 (Hoffmann-La Roche, published 2015).

Legend:
[1] = molecular target: T1, human IL-10R1 fused to an IgG Fc region, biotinylated (human, biotinylated (site not stated)); experiment: SPR, against IL-10 wild type
T1 construct: also called hu IL-10R1; IL-10R1-Fc
Procedure: (§1) The SPR assay set-up is depicted in FIG. 15. About 770 RU of the biotinylated human IL-10R1 fused to an IgG Fc region (see SEQ ID NO: 87) were captured on the neutravidin-derivatized chip matrix of an NLC chip along vertical channels at a concentration of 30 μg/ml and a flow rate of 30 μl/min for a contact time or 240 s. Binding to huIL10R1 was measured at 5 different analyte concentrations (50, 10, 2, 0.4, 0.08 nM) by injections in horizontal orientation at 50 μl/min, recording the association rate for 180 s, the dissociation rate for 600 s. Running buffer (PBST) was injected along the sixth channel to provide an “in-line” blank for referencing. Association rates (kₒₙ) and dissociation rates (koff) were calculated using a simple 1:1 Langmuir binding model (ProteOn Manager software version 2.1) by simultaneously fitting the association and dissociation sensorgrams. The equilibrium dissociation constant (KD) was calculated as the ratio koff/kₒₙ. As human IL-10R1 could not be regenerated without a loss of activity, the subsequent steps of ligand capture and analyte injection were performed channel per channel using a freshly immobilized sensorchip surface for every interaction.
A decreased affinity to the IL-10R1 may represent a distinct advantage when targeting IL-10 to inflamed tissues through fusion with an antibody. […]

[2] = molecular target: T1, human IL-10R1 fused to an IgG Fc …; experiment: SPR (ProteOn XPR36, 25 C), about 770 RU biotinylated IL-10R1-Fc on NLC chip, his-tagged cytokine as analyte
Procedure: as §1
A decreased affinity to the IL-10R1 may represent a distinct advantage when targeting IL-10 to inflamed tissues through fusion with an antibody.

T1 sequence (chain, as listed by the source limits assumed): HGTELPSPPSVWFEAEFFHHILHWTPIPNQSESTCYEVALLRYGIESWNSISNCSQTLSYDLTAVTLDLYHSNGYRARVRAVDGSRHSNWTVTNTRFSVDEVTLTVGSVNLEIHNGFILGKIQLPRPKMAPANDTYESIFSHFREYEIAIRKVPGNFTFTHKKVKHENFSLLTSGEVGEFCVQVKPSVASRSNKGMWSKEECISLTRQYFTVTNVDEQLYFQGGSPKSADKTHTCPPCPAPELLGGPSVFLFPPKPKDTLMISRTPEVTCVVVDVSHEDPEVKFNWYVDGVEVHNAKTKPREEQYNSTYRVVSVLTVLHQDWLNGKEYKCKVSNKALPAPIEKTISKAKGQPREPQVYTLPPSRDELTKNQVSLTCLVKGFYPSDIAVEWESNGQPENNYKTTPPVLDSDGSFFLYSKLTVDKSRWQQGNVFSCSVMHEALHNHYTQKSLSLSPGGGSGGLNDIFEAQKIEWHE

| fold reduction of affinity compared to IL-10 wild type [1] [fold] | Kd [2] [pM] | koff [2] [s⁻¹] | kon [2] [M⁻¹ s⁻¹] | Binder |
| --- | --- | --- | --- | --- |
| 10 | 476 | 0.000219 | 461000 | IL-10 (I87A)-his mutant cytokine (ligand, The entry already carries I87A; Purified as the dimeric cytokine; also called hu IL-10 (I87A)) SPGQGTQSENSCTHFPGNLPNMLRDLRDAFSRVKTFFQMKDQLDNLLLKESLLEDFKGYLGCQALSEMIQFYLEEVMPQAENQDPDAKAHVNSLGENLKTLRLRLRRCHRFLPCENKSKAVEQVKNAFNKLQEKGIYKAMSEFDIFINYIEAYMTMKIRNVDHHHHHH |
| 2 | 80.7 | 0.000184 | 2.28e+06 | IL-10 (R24A)-his mutant cytokine (ligand, The entry already carries R24A; Purified as the dimeric cytokine; also called hu IL-10 (R24A)) SPGQGTQSENSCTHFPGNLPNMLADLRDAFSRVKTFFQMKDQLDNLLLKESLLEDFKGYLGCQALSEMIQFYLEEVMPQAENQDPDIKAHVNSLGENLKTLRLRLRRCHRFLPCENKSKAVEQVKNAFNKLQEKGIYKAMSEFDIFINYIEAYMTMKIRNVDHHHHHH |
